Test results as given in PMC6520328.

Biological target: neonatal Fc receptor (FcRn) (UniProt P55899)
Assay: FcRn binding assay

UniProt P55899, sequence (P55899 whole entry, looked up, tested part not stated): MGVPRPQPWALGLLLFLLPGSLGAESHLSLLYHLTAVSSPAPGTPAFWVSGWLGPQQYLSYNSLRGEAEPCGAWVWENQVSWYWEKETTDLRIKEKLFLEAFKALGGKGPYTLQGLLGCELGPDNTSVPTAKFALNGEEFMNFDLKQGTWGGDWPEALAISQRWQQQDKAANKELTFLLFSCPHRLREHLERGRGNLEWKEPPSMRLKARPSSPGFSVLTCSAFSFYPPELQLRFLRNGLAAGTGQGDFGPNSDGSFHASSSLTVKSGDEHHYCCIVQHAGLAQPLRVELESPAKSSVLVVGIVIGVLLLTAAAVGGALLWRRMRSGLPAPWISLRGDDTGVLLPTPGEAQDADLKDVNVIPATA

For “Fc deglycosylated tralokinumab (antibody)”, the FcRn binding relative to control tralokinumab was 87%.
